Assay results: patent publication US20260028406A1

Experiments:
[1] = target: purified human tenascin C protein (human) (UniProt P24821); assay: ELISA, plates coated with 3 ug/ml purified human TNC, increasing VHH concentration
[2] = target: purified human tenascin C protein (human) (UniProt P24821); assay: BLI (biolayer interferometry); format not described
[3] = target: EIIIB domain of fibronectin; assay: as above
Sequence of EIIIB domain of fibronectin (P02751 1271-1359): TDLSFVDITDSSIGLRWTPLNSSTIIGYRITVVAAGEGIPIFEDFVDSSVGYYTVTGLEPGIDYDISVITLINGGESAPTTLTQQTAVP

Sequence of purified human tenascin C protein (human) (P24821 23-2201): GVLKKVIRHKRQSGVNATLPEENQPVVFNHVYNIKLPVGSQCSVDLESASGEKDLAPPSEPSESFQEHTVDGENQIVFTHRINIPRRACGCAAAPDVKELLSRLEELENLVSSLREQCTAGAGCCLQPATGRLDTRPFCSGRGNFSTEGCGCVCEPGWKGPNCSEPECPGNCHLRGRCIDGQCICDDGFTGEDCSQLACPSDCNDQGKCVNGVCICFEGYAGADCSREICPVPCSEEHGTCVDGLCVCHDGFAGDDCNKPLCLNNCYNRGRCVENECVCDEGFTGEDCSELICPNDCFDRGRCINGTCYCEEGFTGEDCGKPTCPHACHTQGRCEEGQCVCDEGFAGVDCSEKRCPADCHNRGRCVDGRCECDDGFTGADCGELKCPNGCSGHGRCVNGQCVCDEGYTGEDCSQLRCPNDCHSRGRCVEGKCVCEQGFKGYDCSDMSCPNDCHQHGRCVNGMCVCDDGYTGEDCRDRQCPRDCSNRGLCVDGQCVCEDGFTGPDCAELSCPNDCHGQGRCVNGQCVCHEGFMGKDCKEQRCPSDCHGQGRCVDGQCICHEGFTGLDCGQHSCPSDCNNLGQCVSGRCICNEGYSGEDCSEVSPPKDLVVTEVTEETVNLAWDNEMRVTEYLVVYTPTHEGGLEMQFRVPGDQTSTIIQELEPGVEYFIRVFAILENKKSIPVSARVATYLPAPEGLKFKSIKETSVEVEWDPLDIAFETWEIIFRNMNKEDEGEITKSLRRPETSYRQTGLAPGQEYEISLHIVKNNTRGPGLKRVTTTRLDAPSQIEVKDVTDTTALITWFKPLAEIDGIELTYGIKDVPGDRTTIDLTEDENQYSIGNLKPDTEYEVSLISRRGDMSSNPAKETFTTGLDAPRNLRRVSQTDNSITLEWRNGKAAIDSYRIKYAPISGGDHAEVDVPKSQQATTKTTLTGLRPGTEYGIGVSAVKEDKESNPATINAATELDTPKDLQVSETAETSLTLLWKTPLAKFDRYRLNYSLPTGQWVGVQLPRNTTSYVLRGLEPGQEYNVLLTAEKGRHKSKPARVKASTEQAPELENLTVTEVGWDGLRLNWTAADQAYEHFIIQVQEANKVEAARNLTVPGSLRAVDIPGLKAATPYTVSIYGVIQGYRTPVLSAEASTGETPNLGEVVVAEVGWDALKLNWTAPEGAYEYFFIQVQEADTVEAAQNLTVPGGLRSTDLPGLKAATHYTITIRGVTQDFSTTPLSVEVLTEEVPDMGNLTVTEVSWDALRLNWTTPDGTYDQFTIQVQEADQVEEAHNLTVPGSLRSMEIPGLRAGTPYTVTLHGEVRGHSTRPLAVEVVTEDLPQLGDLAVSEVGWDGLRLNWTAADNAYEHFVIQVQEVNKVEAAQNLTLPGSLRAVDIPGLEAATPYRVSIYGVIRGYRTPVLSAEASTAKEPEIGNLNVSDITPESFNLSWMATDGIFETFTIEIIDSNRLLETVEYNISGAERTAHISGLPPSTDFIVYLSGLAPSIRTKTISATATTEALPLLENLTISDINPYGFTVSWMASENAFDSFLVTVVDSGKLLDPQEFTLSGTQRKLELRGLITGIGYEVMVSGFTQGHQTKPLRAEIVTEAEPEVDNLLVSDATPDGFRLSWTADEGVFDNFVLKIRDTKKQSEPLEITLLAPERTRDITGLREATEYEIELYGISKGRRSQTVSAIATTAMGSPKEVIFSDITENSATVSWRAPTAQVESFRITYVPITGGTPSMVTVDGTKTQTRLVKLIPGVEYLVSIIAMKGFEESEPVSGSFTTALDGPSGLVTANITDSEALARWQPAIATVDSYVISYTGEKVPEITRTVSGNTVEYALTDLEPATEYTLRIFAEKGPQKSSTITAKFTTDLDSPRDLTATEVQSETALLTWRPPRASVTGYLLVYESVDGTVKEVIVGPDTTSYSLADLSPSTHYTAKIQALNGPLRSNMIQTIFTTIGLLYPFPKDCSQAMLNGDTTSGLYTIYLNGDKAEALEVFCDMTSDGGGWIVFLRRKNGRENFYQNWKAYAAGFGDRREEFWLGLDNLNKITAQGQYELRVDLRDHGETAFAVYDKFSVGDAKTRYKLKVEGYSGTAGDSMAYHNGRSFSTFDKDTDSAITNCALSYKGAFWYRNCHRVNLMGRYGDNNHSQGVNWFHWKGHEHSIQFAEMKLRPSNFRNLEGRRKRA

Binder	EC50 (read off the curve) [1]	Kd [2]	Kd [3]
NJT3 nanobody (VHH) (VHH) VHH: QVQLVETGGGLAQAGGSLRLSCAASGRTLSGYAMGWFRQAPGKEREFVAAISWSGRNTYYDYTVQGRFTISKDNAKNTVNLQMNSLKPEDTAVYYCAVSRSLDEFGDGYEMDYWGDGTQVTVSS	0.02 ng/mL	< 1 pM	–
NJB2 nanobody (VHH) (VHH) VHH: QVQLVETGGGLVQAGGSLRLSCAASGSTFSHNAGGWYRQAPEKQRELVAGISSDGNINYADSVKDRFTISRDNASNTMYLQMNNLKPEDTAVYVCNIRGSYGNTYYSRWGQGTQVTVSS	–	–	4000 pM

Results, then the binder that gave them:

EC50 (read off the curve) [1]	Kd [2]	Kd [3]	Binder
–	< 1 pM	–	NJT4 nanobody (VHH) (VHH) VHH: QVQLVESGGGLVQPGGSLRLSCAASGFTFSSYTMRWYRQAPGKERELVAFIGVAGGSTKYADSVKGRFTISRDNTKNTVYLQMNTLKPEDTAVYYCYAPLTPYWGQGTQVTVSS
0.01 ng/mL	< 1 pM	–	NJT6 nanobody (VHH) (VHH) VHH: QVQLVETGGDLVQPGGSLRLSCAASGLTLDYYAIGWVRQAPGKEREGVSCITPQDGNTYYDDSVMGRFTILRDNAKNMVYLQMNNLKPEDTAVYFCAAAGALTLDPSEYEYWGQGTQVTVSS
